The target in assay [1] is GLP-1 receptor (GLP-1R), stably expressed on HEK293 cells. The assay is described as follows: cell-based or functional assay.
For assay [2], the target named is Glucagon receptor (GCGR), stably expressed on HEK293 cells. The experiment in a line: cell-based or functional assay.

B1: dgc015 (peptide)
peptide: HXQGTFTSDYSKYLEERAAKEFIAWLEGG
HELM: PEPTIDE1{H.[Aib].Q.G.T.F.T.S.D.Y.S.K.Y.L.E.E.R.A.A.K.E.F.I.A.W.L.E.G.G.[am]}|PEPTIDE2{[CCCCCCCCCCCCCCCC(=O)[*:2]].[gGlu]}$PEPTIDE1,PEPTIDE2,20:R3-2:R2$$$V2.0; N-terminus assumed
SMILES: CCCCCCCCCCCCCCCC(=O)N[C@@H](CCC(=O)NCCCC[C@H](NC(=O)[C@H](C)NC(=O)[C@H](C)NC(=O)[C@H](CCCNC(=N)N)NC(=O)[C@H](CCC(=O)O)NC(=O)[C@H](CCC(=O)O)NC(=O)[C@H](CC(C)C)NC(=O)[C@H](Cc1ccc(O)cc1)NC(=O)[C@H](CCCCN)NC(=O)[C@H](CO)NC(=O)[C@H](Cc1ccc(O)cc1)NC(=O)[C@H](CC(=O)O)NC(=O)[C@H](CO)NC(=O)[C@@H](NC(=O)[C@H](Cc1ccccc1)NC(=O)[C@@H](NC(=O)CNC(=O)[C@H](CCC(N)=O)NC(=O)C(C)(C)NC(=O)[C@@H](N)Cc1c[nH]cn1)[C@@H](C)O)[C@@H](C)O)C(=O)N[C@@H](CCC(=O)O)C(=O)N[C@@H](Cc1ccccc1)C(=O)N[C@H](C(=O)N[C@@H](C)C(=O)N[C@@H](Cc1c[nH]c2ccccc12)C(=O)N[C@@H](CC(C)C)C(=O)N[C@@H](CCC(=O)O)C(=O)NCC(=O)NCC(N)=O)[C@@H](C)CC)C(=O)O
With B1, the “GLP-1R (nM EC50), receptor-mediated cAMP production in HEK293 cells” value (“GLP-1R (nM EC50)” for short) in assay [1] stood at 0.899 nM. The “GCGR (nM EC50), receptor-mediated cAMP production in HEK293 cells” value (shortened to “GCGR (nM EC50)”) in assay [2] stood at 1.53 nM.

B2: dgc017 (peptide)
peptide: HXQGTFTSDYSKYLDEKAAKEFIAWLEGG
HELM: PEPTIDE1{H.[Aib].Q.G.T.F.T.S.D.Y.S.K.Y.L.D.E.K.A.A.K.E.F.I.A.W.L.E.G.G.[am]}|PEPTIDE2{[CCCCCCCCCCCCCCCC(=O)[*:2]].[gGlu]}$PEPTIDE1,PEPTIDE2,20:R3-2:R2$$$V2.0; N-terminus assumed
SMILES: CCCCCCCCCCCCCCCC(=O)N[C@@H](CCC(=O)NCCCC[C@H](NC(=O)[C@H](C)NC(=O)[C@H](C)NC(=O)[C@H](CCCCN)NC(=O)[C@H](CCC(=O)O)NC(=O)[C@H](CC(=O)O)NC(=O)[C@H](CC(C)C)NC(=O)[C@H](Cc1ccc(O)cc1)NC(=O)[C@H](CCCCN)NC(=O)[C@H](CO)NC(=O)[C@H](Cc1ccc(O)cc1)NC(=O)[C@H](CC(=O)O)NC(=O)[C@H](CO)NC(=O)[C@@H](NC(=O)[C@H](Cc1ccccc1)NC(=O)[C@@H](NC(=O)CNC(=O)[C@H](CCC(N)=O)NC(=O)C(C)(C)NC(=O)[C@@H](N)Cc1c[nH]cn1)[C@@H](C)O)[C@@H](C)O)C(=O)N[C@@H](CCC(=O)O)C(=O)N[C@@H](Cc1ccccc1)C(=O)N[C@H](C(=O)N[C@@H](C)C(=O)N[C@@H](Cc1c[nH]c2ccccc12)C(=O)N[C@@H](CC(C)C)C(=O)N[C@@H](CCC(=O)O)C(=O)NCC(=O)NCC(N)=O)[C@@H](C)CC)C(=O)O
On to B2, for which the “GLP-1R (nM EC50)” value in assay [1] worked out at 0.627 nM. Further, the “GCGR (nM EC50)” value in assay [2] is 3.95 nM.

B3: dgc016 (peptide)
peptide: HXQGTFTSDYSKYLEERAAKEFIAWLEGG
HELM: PEPTIDE1{H.[Aib].Q.G.T.F.T.S.D.Y.S.K.Y.L.E.E.R.A.A.K.E.F.I.A.W.L.E.G.G.[am]}|PEPTIDE2{[CCCCCCCCCCCCCCCC(=O)[*:2]].[gGlu].[gGlu]}$PEPTIDE1,PEPTIDE2,20:R3-3:R2$$$V2.0; N-terminus assumed
SMILES: CCCCCCCCCCCCCCCC(=O)N[C@@H](CCC(=O)N[C@@H](CCC(=O)NCCCC[C@H](NC(=O)[C@H](C)NC(=O)[C@H](C)NC(=O)[C@H](CCCNC(=N)N)NC(=O)[C@H](CCC(=O)O)NC(=O)[C@H](CCC(=O)O)NC(=O)[C@H](CC(C)C)NC(=O)[C@H](Cc1ccc(O)cc1)NC(=O)[C@H](CCCCN)NC(=O)[C@H](CO)NC(=O)[C@H](Cc1ccc(O)cc1)NC(=O)[C@H](CC(=O)O)NC(=O)[C@H](CO)NC(=O)[C@@H](NC(=O)[C@H](Cc1ccccc1)NC(=O)[C@@H](NC(=O)CNC(=O)[C@H](CCC(N)=O)NC(=O)C(C)(C)NC(=O)[C@@H](N)Cc1c[nH]cn1)[C@@H](C)O)[C@@H](C)O)C(=O)N[C@@H](CCC(=O)O)C(=O)N[C@@H](Cc1ccccc1)C(=O)N[C@H](C(=O)N[C@@H](C)C(=O)N[C@@H](Cc1c[nH]c2ccccc12)C(=O)N[C@@H](CC(C)C)C(=O)N[C@@H](CCC(=O)O)C(=O)NCC(=O)NCC(N)=O)[C@@H](C)CC)C(=O)O)C(=O)O
Regarding B3, the “GLP-1R (nM EC50)” value in assay [1] was 1.23 nM. The “GCGR (nM EC50)” value in assay [2] was 0.342 nM.

B4: dgc013 (peptide)
peptide: HXQGTFTSDYSKYLDERAAKEFIAWLEGG
HELM: PEPTIDE1{H.[Aib].Q.G.T.F.T.S.D.Y.S.K.Y.L.D.E.R.A.A.K.E.F.I.A.W.L.E.G.G.[am]}|PEPTIDE2{[CCCCCCCCCCCCCCCC(=O)[*:2]].[gGlu].[gGlu]}$PEPTIDE1,PEPTIDE2,20:R3-3:R2$$$V2.0; N-terminus assumed
SMILES: CCCCCCCCCCCCCCCC(=O)N[C@@H](CCC(=O)N[C@@H](CCC(=O)NCCCC[C@H](NC(=O)[C@H](C)NC(=O)[C@H](C)NC(=O)[C@H](CCCNC(=N)N)NC(=O)[C@H](CCC(=O)O)NC(=O)[C@H](CC(=O)O)NC(=O)[C@H](CC(C)C)NC(=O)[C@H](Cc1ccc(O)cc1)NC(=O)[C@H](CCCCN)NC(=O)[C@H](CO)NC(=O)[C@H](Cc1ccc(O)cc1)NC(=O)[C@H](CC(=O)O)NC(=O)[C@H](CO)NC(=O)[C@@H](NC(=O)[C@H](Cc1ccccc1)NC(=O)[C@@H](NC(=O)CNC(=O)[C@H](CCC(N)=O)NC(=O)C(C)(C)NC(=O)[C@@H](N)Cc1c[nH]cn1)[C@@H](C)O)[C@@H](C)O)C(=O)N[C@@H](CCC(=O)O)C(=O)N[C@@H](Cc1ccccc1)C(=O)N[C@H](C(=O)N[C@@H](C)C(=O)N[C@@H](Cc1c[nH]c2ccccc12)C(=O)N[C@@H](CC(C)C)C(=O)N[C@@H](CCC(=O)O)C(=O)NCC(=O)NCC(N)=O)[C@@H](C)CC)C(=O)O)C(=O)O
Consider B4, for which the “GLP-1R (nM EC50)” value in assay [1] came to 0.319 nM. The “GCGR (nM EC50)” value in assay [2] was 1.99 nM.

B5: dgc018 (peptide)
peptide: HXQGTFTSDYSKYLDERAAKEFIAWLEGEG
HELM: PEPTIDE1{H.[Aib].Q.G.T.F.T.S.D.Y.S.K.Y.L.D.E.R.A.A.K.E.F.I.A.W.L.E.G.E.G.[am]}|PEPTIDE2{[CCCCCCCCCCCCCCCC(=O)[*:2]].[gGlu]}$PEPTIDE1,PEPTIDE2,20:R3-2:R2$$$V2.0; N-terminus assumed
SMILES: CCCCCCCCCCCCCCCC(=O)N[C@@H](CCC(=O)NCCCC[C@H](NC(=O)[C@H](C)NC(=O)[C@H](C)NC(=O)[C@H](CCCNC(=N)N)NC(=O)[C@H](CCC(=O)O)NC(=O)[C@H](CC(=O)O)NC(=O)[C@H](CC(C)C)NC(=O)[C@H](Cc1ccc(O)cc1)NC(=O)[C@H](CCCCN)NC(=O)[C@H](CO)NC(=O)[C@H](Cc1ccc(O)cc1)NC(=O)[C@H](CC(=O)O)NC(=O)[C@H](CO)NC(=O)[C@@H](NC(=O)[C@H](Cc1ccccc1)NC(=O)[C@@H](NC(=O)CNC(=O)[C@H](CCC(N)=O)NC(=O)C(C)(C)NC(=O)[C@@H](N)Cc1c[nH]cn1)[C@@H](C)O)[C@@H](C)O)C(=O)N[C@@H](CCC(=O)O)C(=O)N[C@@H](Cc1ccccc1)C(=O)N[C@H](C(=O)N[C@@H](C)C(=O)N[C@@H](Cc1c[nH]c2ccccc12)C(=O)N[C@@H](CC(C)C)C(=O)N[C@@H](CCC(=O)O)C(=O)NCC(=O)N[C@@H](CCC(=O)O)C(=O)NCC(N)=O)[C@@H](C)CC)C(=O)O
As for B5, the “GLP-1R (nM EC50)” value in assay [1] was 0.401 nM. Further, the “GCGR (nM EC50)” value in assay [2] worked out at 1.3 nM.

B6: dgc014 (peptide)
peptide: HXQGTFTSDYSKYLDERAAKEFIAWLEGG
HELM: PEPTIDE1{H.[Aib].Q.G.T.F.T.S.D.Y.S.K.Y.L.D.E.R.A.A.K.E.F.I.A.W.L.E.G.G.[am]}|PEPTIDE2{[CCCCCCCCCCCCCCCC(=O)[*:2]].[gGlu]}$PEPTIDE1,PEPTIDE2,20:R3-2:R2$$$V2.0; N-terminus assumed
SMILES: CCCCCCCCCCCCCCCC(=O)N[C@@H](CCC(=O)NCCCC[C@H](NC(=O)[C@H](C)NC(=O)[C@H](C)NC(=O)[C@H](CCCNC(=N)N)NC(=O)[C@H](CCC(=O)O)NC(=O)[C@H](CC(=O)O)NC(=O)[C@H](CC(C)C)NC(=O)[C@H](Cc1ccc(O)cc1)NC(=O)[C@H](CCCCN)NC(=O)[C@H](CO)NC(=O)[C@H](Cc1ccc(O)cc1)NC(=O)[C@H](CC(=O)O)NC(=O)[C@H](CO)NC(=O)[C@@H](NC(=O)[C@H](Cc1ccccc1)NC(=O)[C@@H](NC(=O)CNC(=O)[C@H](CCC(N)=O)NC(=O)C(C)(C)NC(=O)[C@@H](N)Cc1c[nH]cn1)[C@@H](C)O)[C@@H](C)O)C(=O)N[C@@H](CCC(=O)O)C(=O)N[C@@H](Cc1ccccc1)C(=O)N[C@H](C(=O)N[C@@H](C)C(=O)N[C@@H](Cc1c[nH]c2ccccc12)C(=O)N[C@@H](CC(C)C)C(=O)N[C@@H](CCC(=O)O)C(=O)NCC(=O)NCC(N)=O)[C@@H](C)CC)C(=O)O
With B6, the “GLP-1R (nM EC50)” value in assay [1] came to 0.516 nM. Also, the “GCGR (nM EC50)” value in assay [2] was 0.821 nM.

Values taken from patent US20230174608A1 (published 2023).
